Experiments:
[1] = molecular target: T1, BlasaTA (transaminase from Blastococcus saxobsidens) (Blastococcus saxobsidens, UniProt H6RQF3); test: half-reaction with PLP form, absorbance at […] nm, kobs fit; type: biochemical; conditions: pH 8.0, 50 mM K-phosphate, 30 °C, single half-reaction, read-out: 50 mM K-Phosphate Buffer, pH 8.0 / KD
T1 construct: gene BLASA_4517; codon-optimized gene in modified pET-21d; N-terminal His6 tag with TEV site kept for kinetics, cut for crystals; E. coli Rosetta (DE3) pLysS; homodimer ~60 kDa

[2] = molecular target: Recombinant D-amino acid transaminase from Blastococcus saxobsidens (BlasaTA), (His)6-tagged (Blastococcus saxobsidens (strain DD2)); test: SEC; gel filtration of the purified enzyme; molecular weight approximately 60 kDa against 29.1 kDa for the subunit; conditions not shown
purified protein [3] = substrate: O=C(O)CCC(=O)C(=O)O; test: purified protein; type: biochemical, Blastococcus saxobsidens; conditions: co-substrate 25 mM D-alanine, pH 8.0, 50 mM K-phosphate, 40 °C
purified protein [4] = substrate: CC(=O)C(=O)O; test: purified protein; type: biochemical, Blastococcus saxobsidens; conditions: co-substrate 15 mM D-glutamate, pH 8.0, 50 mM K-phosphate, 40 °C
purified protein [5] = substrate: N[C@H](CCC(=O)O)C(=O)O; test: purified protein; type: biochemical, Blastococcus saxobsidens; conditions: co-substrate 15 mM pyruvate, pH 8.0, 50 mM K-phosphate, 40 °C
purified protein [6] = substrate: C[C@@H](N)c1ccccc1; test: purified protein; type: biochemical, Blastococcus saxobsidens; conditions: co-substrate 2 mM α-ketoglutarate, pH 9.0, 50 mM CHES, 30 °C
purified protein [7] = substrate: CC(C)CC(=O)C(=O)O; test: purified protein; type: biochemical, Blastococcus saxobsidens; conditions: co-substrate 25 mM D-alanine, pH 8.0, 50 mM K-phosphate, 40 °C
purified protein [8] = substrate: C[C@@H](N)C(=O)O; test: purified protein; conditions: co-substrate 5 mM α-ketoglutarate, pH 8.0, 50 mM K-phosphate, 40 °C

For N[C@H](Cc1ccccc1)C(=O)O [D-Phenylalanine], the Kd [1] was 32 ± 2 mM.

C[C@@H](N)c1ccccc1 [(R)-1-Phenylethyl amine] gave a Kd [1] of 19 ± 2 mM.

“Recombinant D-amino acid transaminase from Blastococcus saxobsidens (BlasaTA), (His)6-tagged (enzyme)” showed a stoichiometry N [2] of 2.

B1: BlasaTA (transaminase from Blastococcus saxobsidens) (Blastococcus saxobsidens DD2) (protein)
chain: MNEQRSVAVWRDGAAVTVPAHQPVVTAFDLGLGRGDGIFESVAVVAGRTPHLAAHLTRLTRSAALLGLPAPGDQAWMEMVAAVLADWPAALEGVCRLFLTRGLGDGTPPTALALLAPVPADTLRQRAEGISVATLGLGVPADFRAGAPWLLGGAKTLSYAVNMAAQRHAHDLGADDVVFTSLEGRLLEGPTSTVVWAAGGTLHTPPVETGILPGTTQARLFTAAAADGWPTSVTPGTVDDLHAADAVWLLSGVRGAAVVHTVDGVRRGDGDLSRRVRELLAR
notes: codon-optimized gene in modified pET-21d; N-terminal His6 tag with TEV site kept for kinetics, cut for crystals; E. coli Rosetta (DE3) pLysS; homodimer ~60 kDa
Work on B1 yielded a Km (purified protein [3]) of 530 ± 60 µM, a kcat (purified protein [3]) of 8.1 ± 0.3 s⁻¹ and a kcat/Km (purified protein [3]) of 15300 ± 2300 M⁻¹ s⁻¹. For the same molecule, the Km (purified protein [4]) was 1600 ± 100 µM, the kcat (purified protein [4]) was 7.5 ± 0.3 s⁻¹ and the kcat/Km (purified protein [4]) was 4700 ± 500 M⁻¹ s⁻¹. It also gave a Km (purified protein [5]) of 400 ± 60 µM, a kcat (purified protein [5]) of 7.5 ± 0.3 s⁻¹ and a kcat/Km (purified protein [5]) of 18800 ± 3600 M⁻¹ s⁻¹. For the same molecule, the Km (purified protein [6]) was 6600 ± 400 µM, the kcat (purified protein [6]) was 0.053 ± 0.002 s⁻¹ and the kcat/Km (purified protein [6]) was 8 ± 0.8 M⁻¹ s⁻¹. The Km (purified protein [7]) was 45000 ± 2000 µM, the kcat (purified protein [7]) was 0.19 ± 0.004 s⁻¹ and the kcat/Km (purified protein [7]) was 4.2 ± 0.3 M⁻¹ s⁻¹. It also gave a Km (purified protein [8]) of 2000 ± 300 µM, a kcat (purified protein [8]) of 8.1 s⁻¹ and a kcat/Km (purified protein [8]) of 4000 M⁻¹ s⁻¹.
